Assay in all cases: affinity for IL-3Rα extracellular domain protein; method not stated
The target in assay [1] is T1, human IL-3Rα extracellular domain S59A (human, UniProt P26951 19-305).
T1 sequence: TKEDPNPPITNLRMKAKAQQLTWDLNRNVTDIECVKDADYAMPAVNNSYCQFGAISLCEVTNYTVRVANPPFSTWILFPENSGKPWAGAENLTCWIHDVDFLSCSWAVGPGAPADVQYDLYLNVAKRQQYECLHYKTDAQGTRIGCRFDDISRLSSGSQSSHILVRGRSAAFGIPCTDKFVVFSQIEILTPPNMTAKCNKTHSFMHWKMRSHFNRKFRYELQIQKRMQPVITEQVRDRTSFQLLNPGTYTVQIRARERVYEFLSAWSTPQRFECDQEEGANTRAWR

The target in assay [2] is T2, human IL-3Rα extracellular domain E51Q (human, UniProt P26951 19-305).
T2 sequence: T1 sequence with E33Q, A41S

Assay [3] has as its target T3, human IL-3Rα extracellular domain V53A (human, UniProt P26951 19-305).
T3 sequence: T1 sequence with V35A, A41S

Assay [4] deals with T4, human IL-3Rα extracellular domain V277A (human, UniProt P26951 19-305).
T4 sequence: T1 sequence with A41S, V259A

The target in assay [5] is T5, wild type human IL-3Rα extracellular domain (human, UniProt P26951 19-305).
T5 construct: also called huIL-3Rα WT; WT
T5 sequence: T1 sequence with A41S

Assay [6] addresses T6, human IL-3Rα extracellular domain E51A (human, UniProt P26951 19-305).
T6 sequence: T1 sequence with E33A, A41S

For assay [7], the target named is T7, human IL-3Rα extracellular domain N232A (human, UniProt P26951 19-305).
T7 sequence: T1 sequence with A41S, N214A

Assay [8] concerns the target T8, human IL-3Rα extracellular domain Y278F (human, UniProt P26951 19-305).
T8 sequence: T1 sequence with A41S, Y260F

Assay [9] deals with T9, human IL-3Rα extracellular domain P61A (human, UniProt P26951 19-305).
T9 sequence: T1 sequence with A41S, P43A

The target in assay [10] is T10, human IL-3Rα extracellular domain N232T (human, UniProt P26951 19-305).
T10 sequence: T1 sequence with A41S, N214T

Assay [11] addresses T11, human IL-3Rα extracellular domain V277I (human, UniProt P26951 19-305).
T11 sequence: T1 sequence with A41S, V259I

Residue numbers refer to the chain shown, from its start.

B1: human IL-3 (hIL-3) (ligand)
chain: APMTQTTPLKTSWVNCSNMIDEIITHLKQPPLPLLDFNNLNGEDQDILMENNLRRPNLEAFNRAVKSLQNASAIESILKNLLPCLPLATAAPTRHPIHIKDGDWNEFRRKLTFYLKTLENAQAQQTTLSLAIF
On to B1, for which the Kd in [1] was 262 nM; in assay [2], 213 nM; in [3] it was 588 nM; in [4], 219 nM; in [5] it was 125 nM; in assay [6], 207 nM. Also, the equilibrium dissociation constant (Kd) was found to be 2040 nM in assay [7]; 1860 nM in assay [8]; 176 nM in assay [9]; 358 nM in [10]; 33 nM in assay [11].

The values are drawn from patent US20180208661A1 (CSL, published 2018).
